Data as given in PMC2756758.
Values joined by “and” are separate entries in the source; they are usually repeats but may differ in a detail not shown here. Equal entries are not always repeated.

Target: T1, Myc-ArPIKfyve^WT (human), Q08AM6
T1 chain: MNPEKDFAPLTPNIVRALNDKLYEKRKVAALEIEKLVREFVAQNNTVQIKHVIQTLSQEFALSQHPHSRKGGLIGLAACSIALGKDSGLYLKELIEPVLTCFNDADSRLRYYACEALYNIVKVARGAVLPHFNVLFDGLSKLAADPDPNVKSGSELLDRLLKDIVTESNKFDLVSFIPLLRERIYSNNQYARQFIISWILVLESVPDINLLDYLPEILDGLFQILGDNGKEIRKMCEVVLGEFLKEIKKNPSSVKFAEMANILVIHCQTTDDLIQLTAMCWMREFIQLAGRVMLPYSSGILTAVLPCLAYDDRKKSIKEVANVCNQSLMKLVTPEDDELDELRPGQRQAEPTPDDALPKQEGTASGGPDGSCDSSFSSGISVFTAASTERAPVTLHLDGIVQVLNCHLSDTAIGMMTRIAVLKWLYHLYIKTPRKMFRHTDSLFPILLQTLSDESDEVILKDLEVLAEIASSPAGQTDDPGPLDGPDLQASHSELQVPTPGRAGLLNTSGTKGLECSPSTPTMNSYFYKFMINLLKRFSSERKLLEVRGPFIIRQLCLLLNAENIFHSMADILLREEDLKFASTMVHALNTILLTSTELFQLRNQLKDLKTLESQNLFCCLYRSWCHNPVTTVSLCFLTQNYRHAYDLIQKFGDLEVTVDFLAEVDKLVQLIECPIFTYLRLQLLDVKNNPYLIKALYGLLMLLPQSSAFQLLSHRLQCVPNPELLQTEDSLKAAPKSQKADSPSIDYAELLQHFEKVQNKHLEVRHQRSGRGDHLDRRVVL
Test: cross-linking
Conditions: remark: other sources report otherwise

B1: Myc-ArPIKfyve^WT, Q08AM6 1-782 (natural protein)
chain: T1 chain
B1 was tested, and the stoichiometry N was 2 and 3.
